Measured values: PMC8406188 (mBio, 2021)
Numbering of substitutions follows the chain as printed. In names and notes the source's numbering stands. Several values for one entry are separate records, joined by “and”; a condition that tells them apart may be missing. Identical values can stand only once. Each block holds one molecule with its values, some of them ahead of it.

What was measured:
[1] = biological target: OmpC(K281am) with benzoyl phenylalanine (Bpa) at residue 281 (E. coli) (UniProt P06996); assay: SDS-PAGE of unheated and heated samples (heat-sensitive oligomers); OmpC amber mutants synthesized in PURExpress lacking release factor 1 with FluoroTect, tRNATAG-BPA, SurA, Rc LPS and Bam POPC proteoliposomes; 30 min, 30°C; with or without UV
[2] = biological target: OmpC(K255am) with benzoyl phenylalanine (Bpa) at residue 255 (E. coli) (UniProt P06996); assay: as above
[3] = biological target: the molecule itself; assay: SDS-PAGE of unheated and heated samples (heat-sensitive oligomers), with proteinase K; OmpC synthesized in PURExpress with FluoroTect, SurA, smooth LPS from E. coli O55:B5 (0.5 mg/ml) and Bam DLPC proteoliposomes; 30 min, 37°C
[4] = biological target: the molecule itself; assay: SDS-PAGE of unheated samples (oligomers), colloidal blue staining; urea-denatured OmpC folded into 1% DDM-0.4% DDG, 50 mM Tris pH 8.0, 1 mM DTT, 0.1 mM EDTA; 37°C, 24 h
[5] = biological target: the molecule itself; assay: SDS-PAGE of unheated and heated samples (heat-sensitive oligomers), with proteinase K; 0.2 μM urea-denatured OmpC S71C-BODIPY-FL added to SurA, Bam proteoliposomes (text: Bam DLPC; legend: Bam DMPC) and Rc LPS in a complete mixture of PURExpress components; 30 min, 37°C

stoichiometry N [1]: 3
Molecule: OmpC(K281am) with benzoyl phenylalanine (Bpa) at residue 281 (from UniProt P06996 22-367) (natural protein)

stoichiometry N [2]: 3
Molecule: OmpC(K255am) with benzoyl phenylalanine (Bpa) at residue 255 (from UniProt P06996 22-367) (natural protein)

B1: E. coli OmpC (wild type), synthesized in vitro without its signal peptide (natural protein, UniProt P06996 22-367, looked up)
chain: AEVYNKDGNKLDLYGKVDGLHYFSDNKDVDGDQTYMRLGFKGETQVTDQLTGYGQWEYQIQGNSAENENNSWTRVAFAGLKFQDVGSFDYGRNYGVVYDVTSWTDVLPEFGGDTYGSDNFMQQRGNGFATYRNTDFFGLVDGLNFAVQYQGKNGNPSGEGFTSGVTNNGRDALRQNGDGVGGSITYDYEGFGIGGAISSSKRTDAQNTAAYIGNGDRAETYTGGLKYDANNIYLAAQYTQTYNATRVGSLGWANKAQNFEAVAQYQFDFGLRPSLAYLQSKGKNLGRGYDDEDILKYVDVGATYYFNKNMSTYVDYKINLLDDNQFTRDAGINTDNIVALGLVYQF
modifications: fluorescent lysine residues (BODIPY-FL at the ε position, from FluoroTect GreenLys) incorporated during synthesis
stoichiometry N [3]: 2 and 3

B2: Urea-denatured wild-type OmpC purified from inclusion bodies (natural protein, E. coli, UniProt P06996 22-367, looked up)
chain: B1 chain
stoichiometry N [4]: 3

B3: Urea-denatured OmpC S71C, fluorescently labeled at residue 71 with BODIPY-FL (natural protein, E. coli, UniProt P06996 22-367, looked up)
chain: B1 chain with S71C
modifications: BODIPY-FL maleimide on the cysteine at 71
stoichiometry N [5]: 2 and 3
